In publication PMC12889889 one finds ADCC Reporter Bioassay (WIL2-S target cells, Jurkat/NFAT-luc + FcγRIIIa V158 effector cells), EC50 of luciferase induction data, which are given here for four substances.

The target in this experiment is FcγRIIIa (V158 variant).
For “Riabni (rituximab-arrx), lot 1141263, untreated (antibody)”, the ADCC Reporter Bioassay (WIL2-S target cells, Jurkat/NFAT-luc + FcγRIIIa V158 effector cells), EC50 of luciferase induction was 13.6 ng/mL.
As for “Rituxan (rituximab), lot 3575428, untreated (antibody)”, the ADCC Reporter Bioassay (WIL2-S target cells, Jurkat/NFAT-luc + FcγRIIIa V158 effector cells), EC50 of luciferase induction is 9.3 ng/mL.
The figure for “Ruxience (rituximab-pvvr), lot GN4445, untreated (antibody)” is 6.06 ng/mL; for “Truxima (rituximab-abbs), lot 1B1011, untreated (antibody)” it is 9.09 ng/mL.
